Target: HCV1406 TCR
Assay: SPR; steady-state titration; TCR amine coupled to the sensor surface (1000-5000 RU), peptide/HLA-A2 injected at increasing concentrations, 5 μL/min, 25 °C, HBS-EP (10 mM HEPES, 150 mM NaCl, 3 mM EDTA, 0.005% surfactant P20, pH 7.4); 1:1 model; mutants globally fit alongside wild type with a shared RUmax

Question: “NS3/HLA-A2 with Arg65 of HLA-A2 mutated to alanine (from UniProt P61769 21-119) (peptide-MHC)” was tested. Which Kd did it give?
Answer: > 1500 µM

Reference: PMC9691722
